# Experimental data taken from patent US20220041658A1 (PROTAGONIST THERAPEUTICS, published 2022).
# Positions of bridges follow the written chain, without caps; N, C: chain ends. Non-standard residues stand in square brackets, D forms with d. Trp(7-Me) = Cc1cccc2c(C[C@H](N)C(=O)O)c[nH]c12; 2Nal = N[C@@H](Cc1ccc2ccccc2c1)C(=O)O; AEF = NCCOc1ccc(C[C@H](N)C(=O)O)cc1; αMeL = CC(C)C[C@](C)(N)C(=O)O; Pen = CC(C)(S)[C@H](N)C(=O)O; αMeK = C[C@](N)(CCCCN)C(=O)O; βAla = NCCC(=O)O
# T1: interleukin-23 receptor (IL-23R) (human, UniProt Q5VWK5 24-629)
# T1 sequence (looked up): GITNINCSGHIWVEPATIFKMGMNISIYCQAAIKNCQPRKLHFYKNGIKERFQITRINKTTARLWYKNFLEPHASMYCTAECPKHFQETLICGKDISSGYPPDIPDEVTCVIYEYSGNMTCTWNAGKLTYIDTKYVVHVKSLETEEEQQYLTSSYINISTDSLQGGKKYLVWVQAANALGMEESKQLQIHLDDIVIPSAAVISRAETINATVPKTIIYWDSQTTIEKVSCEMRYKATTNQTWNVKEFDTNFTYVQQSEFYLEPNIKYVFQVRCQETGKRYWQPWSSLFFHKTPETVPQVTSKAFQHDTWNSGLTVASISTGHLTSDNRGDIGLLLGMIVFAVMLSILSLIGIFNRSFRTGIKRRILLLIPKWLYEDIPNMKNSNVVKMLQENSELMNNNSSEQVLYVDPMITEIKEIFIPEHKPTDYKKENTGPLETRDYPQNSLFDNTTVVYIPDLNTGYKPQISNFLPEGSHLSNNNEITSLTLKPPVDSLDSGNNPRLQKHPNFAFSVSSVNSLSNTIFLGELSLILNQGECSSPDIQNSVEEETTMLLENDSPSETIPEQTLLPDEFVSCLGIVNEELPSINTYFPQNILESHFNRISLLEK
# B1: Peptide of SEQ ID NO: 235 (peptide)
# peptide: Ac-[Pen]NT[Trp(7-Me)][αMeL][Pen][AEF][2Nal][αMeK]K(Ac)N[βAla]-NH2
# modifications: disulfide 1-6
# B2: Peptide of SEQ ID NO: 223 (peptide)
# peptide: XNTXQXXXXKXX
# modifications: Ac-[Pen]-NT-[W(7-Me)]-Q-[Pen]-Phe[4-(2-aminoethoxy)]-[2-Nal]-[a-MeLeu]-[Lys(Ac)]-[N-MeAla]-[bA]-NH2; Pen-Pen disulfide
# B3: Peptide of SEQ ID NO: 361 (peptide)
# peptide: XNTXKXXXXXNL
# modifications: Ac-[Pen]-N-T-[W(7-Me)]-[Lys(Ac)]-[Pen]-Phe[4-(2-aminoethoxy)]-[2-Nal]-[a-MeLys]-[Lys(valeric)]-N-[(D)Leu]-NH2; Pen-Pen disulfide
# B4: Peptide of SEQ ID NO: 209 (peptide)
# peptide: XNTXQXXXXKAX
# modifications: Ac-[Pen]-NT-[W(7-Me)]-Q-[Pen]-Phe[4-(2-aminoethoxy)]-[2-Nal]-[a-MeLeu]-[Lys(Ac)]-[(D)Ala]-[bA]-NH2; Pen-Pen disulfide
# B5: Peptide of SEQ ID NO: 239 (peptide)
# peptide: XKTXQXXXXKNX
# modifications: Ac-[Pen]-[Lys(Ac)]-T-[W(7-Me)]-Q-[Pen]-Phe[4-(2-aminoethoxy)]-[2-Nal]-[a-MeLys]-[Lys(Ac)]-N-[bA]-NH2; Pen-Pen disulfide
# B6: Peptide of SEQ ID NO: 217 (peptide)
# peptide: XNTXQXXXXKTX
# modifications: Ac-[Pen]-NT-[W(7-Me)]-Q-[Pen]-Phe[4-(2-aminoethoxy)]-[2-Nal]-[a-MeLeu]-[Lys(Ac)]-T-[bA]-NH2; Pen-Pen disulfide
# B7: Peptide of SEQ ID NO: 208 (peptide)
# peptide: XNTXQXXXXKLX
# modifications: Ac-[Pen]-NT-[W(7-Me)]-Q-[Pen]-Phe[4-(2-aminoethoxy)]-[2-Nal]-[a-MeLeu]-[Lys(Ac)]-L-[bA]-NH2; Pen-Pen disulfide
# B8: Peptide of SEQ ID NO: 251 (peptide)
# peptide: XNTXKXXXXKNV
# modifications: Ac-[Pen]-NT-[W(7-Me)]-[Lys(Ac)]-[Pen]-Phe[4-(2-aminoethoxy)]-[2-Nal]-[a-MeLys]-[Lys(Ac)]-N-[(D)Val]-NH2; Pen-Pen disulfide
# B9: Peptide of SEQ ID NO: 216 (peptide)
# peptide: XNTXQXXXXKIX
# modifications: Ac-[Pen]-NT-[W(7-Me)]-Q-[Pen]-Phe[4-(2-aminoethoxy)]-[2-Nal]-[a-MeLeu]-[Lys(Ac)]-I-[bA]-NH2; Pen-Pen disulfide
# B10: Peptide of SEQ ID NO: 202 (peptide)
# peptide: XNTXQXXXXKNX
# modifications: Ac-[Pen]-NT-[W(7-Me)]-Q-[Pen]-Phe[4-(2-aminoethoxy)]-[2-Nal]-[a-MeLys]-[Lys(Ac)]-N-[bA]-NH2; Pen-Pen disulfide
# B11: Peptide of SEQ ID NO: 252 (peptide)
# peptide: XNTXKXXXXKNK
# modifications: Ac-[Pen]-NT-[W(7-Me)]-[Lys(Ac)]-[Pen]-Phe[4-(2-aminoethoxy)]-[2-Nal]-[a-MeLys]-[Lys(Ac)]-N-[(D)Lys]-NH2; Pen-Pen disulfide
# B12: Peptide of SEQ ID NO: 221 (peptide)
# peptide: XNTXQXXXXKSX
# modifications: Ac-[Pen]-NT-[W(7-Me)]-Q-[Pen]-Phe[4-(2-aminoethoxy)]-[2-Nal]-[a-MeLeu]-[Lys(Ac)]-S-[bA]-NH2; Pen-Pen disulfide
# B13: Peptide of SEQ ID NO: 363 (peptide)
# peptide: XNTXKXXXXXNL
# modifications: Ac-[Pen]-N-T-[W(7-Me)]-[Lys(Ac)]-[Pen]-Phe[4-(2-aminoethoxy)]-[2-Nal]-[a-MeLys]-[Lys(PEG11-OMe)]-N-[(D)Leu]-NH2; Pen-Pen disulfide
# B14: Peptide of SEQ ID NO: 203 (peptide)
# peptide: RXQTXQCXXXENX
# modifications: Ac-[(D)Arg]-Abu-Q-T-[W(7-Me)]-Q-C-Phe[4-(2-aminoethoxy)]-[2-Nal]-[THP]-E-N-[bA]-NH2; Abu-Cys thioether
# B15: Peptide of SEQ ID NO: 245 (peptide)
# peptide: XNTXKXXXXKNL
# modifications: Ac-[Pen]-NT-[W(7-Me)]-[Lys(Ac)]-[Pen]-Phe[4-(2-aminoethoxy)]-[2-Nal]-[a-MeLys]-[Lys(Ac)]-N-[(D)Leu]-NH2; Pen-Pen disulfide
# B16: Peptide of SEQ ID NO: 218 (peptide)
# peptide: XNTXQXXXXKTX
# modifications: Ac-[Pen]-NT-[W(7-Me)]-Q-[Pen]-Phe[4-(2-aminoethoxy)]-[2-Nal]-[a-MeLeu]-[Lys(Ac)]-[(D)Thr]-[bA]-NH2; Pen-Pen disulfide
# B17: Peptide of SEQ ID NO: 236 (peptide)
# peptide: XNTXQXXXXXNX
# modifications: Ac-[Pen]-NT-[W(7-Me)]-Q-[Pen]-Phe[4-(2-aminoethoxy)]-[2-Nal]-[a-MeLys]-[Aib]-N-[bA]-NH2; Pen-Pen disulfide
# B18: Peptide of SEQ ID NO: 215 (peptide)
# peptide: XNTXQXXXXKHX
# modifications: Ac-[Pen]-NT-[W(7-Me)]-Q-[Pen]-Phe[4-(2-aminoethoxy)]-[2-Nal]-[a-MeLeu]-[Lys(Ac)]-[(D)His]-[bA]-NH2; Pen-Pen disulfide
# What was measured:
# [1] = molecular target: T1, interleukin-23 receptor (IL-23R); assay: cell-based or functional assay
# [2] = molecular target: T1, interleukin-23 receptor (IL-23R); assay: cell-based or functional assay; remark: listed apart in the source
binder,measurement,setting,value
B1,NK Cell Assay IC50,[1],10.2 nM
same,pStat3 HTRF IC50,[2],3.21 nM
B2,NK Cell Assay IC50,[1],8.3 nM
same,pStat3 HTRF IC50,[2],134 nM
B3,NK Cell Assay IC50,[1],1.47 nM
same,pStat3 HTRF IC50,[2],0.596 nM
B4,NK Cell Assay IC50,[1],30.1 nM
same,pStat3 HTRF IC50,[2],9.84 nM
B5,NK Cell Assay IC50,[1],4.1 nM
same,pStat3 HTRF IC50,[2],1.66 nM
B6,NK Cell Assay IC50,[1],13.3 nM
same,pStat3 HTRF IC50,[2],1.61 nM
B7,NK Cell Assay IC50,[1],7.8 nM
same,pStat3 HTRF IC50,[2],5.39 nM
B8,NK Cell Assay IC50,[1],8.19 nM
same,pStat3 HTRF IC50,[2],0.986 nM
B9,NK Cell Assay IC50,[1],> 500 nM
same,pStat3 HTRF IC50,[2],13.5 nM
B10,NK Cell Assay IC50,[1],3.49 nM
same,pStat3 HTRF IC50,[2],1.1 nM
B11,NK Cell Assay IC50,[1],3.32 nM
same,pStat3 HTRF IC50,[2],0.338 nM
B12,NK Cell Assay IC50,[1],5.5 nM
same,pStat3 HTRF IC50,[2],1.27 nM
B13,NK Cell Assay IC50,[1],4.36 nM
same,pStat3 HTRF IC50,[2],0.446 nM
B14,NK Cell Assay IC50,[1],2.3 nM
same,pStat3 HTRF IC50,[2],1.84 nM
B15,NK Cell Assay IC50,[1],2.7 nM
same,pStat3 HTRF IC50,[2],0.51 nM
B16,NK Cell Assay IC50,[1],50.2 nM
same,pStat3 HTRF IC50,[2],11 nM
B17,NK Cell Assay IC50,[1],5.82 nM
same,pStat3 HTRF IC50,[2],5.21 nM
B18,NK Cell Assay IC50,[1],20 nM
same,pStat3 HTRF IC50,[2],4.94 nM
